According to US20110166032A1, “Design and Use of Sortilin Specific Molecular Imaging Ligands” (H. LUNDBECK A/S, priority 2008, published 2011):
Where a chain is given by its changes, count along the chain named. No end group written: not given here.

B1: propeptide of Nerve Growth Factor (NGFpro), E. coli expressed, His6 tag removed by TEV (ligand)
chain: EPHSESNVPAGHTIPQVHWTKLQHSLDTALRRARSAPAAAIAARVAGQTRNITVDPRLFKKRRLRSPRVLFSTQPPREAADTQDLDFEVGGAAPFNRTHRSKR
notes: also called NGF propeptide; pro-domain of Nerve Growth Factor
B2: NGFpro: propeptide of Nerve Growth Factor, amino acid residues 19 to 121 of SEQ ID NO 6 (protein)
chain: B1 chain
modifications: left off: a dimerising Fc or GST
B3: BDNF: Mature BDNF (SEQ ID NO. 7) purchased from R&D Systems (protein, listed as Homo sapiens)
chain: MTILFLTMVISYFGCMKAAPMKEANIRGQGGLAYPGVRTHGTLESVNGPKAGSGLTSLADTFEHVIEELLDEDQKVRPNEENNKDADLYTSRVMLSSQVPLEPPLLFLLEEYKNYLDAANMSMRVRRHSDPARRGELSVCDSISEWVTAADKKTAVDMSGGTVTVLEKVPVSKGQLKQYFYETKCNPMGYTKEGCRGIDKRHWNSQCRTTQSYVRALTMDSKKRIGWRFIRIDTSCVCTLTIKRGR
modifications: SIGNAL (1)..(18) Signal peptide of BDNF
B4: GST-tagged Sortilin propeptide (GST-Sort-pro) (other)
chain: QDRLDAPPPPAAPLPRWSGPIGVSWGLRAAAAGGAFPRGGRWRR
modifications: also: fused to GST, order and linker not given here
notes: the construct is 'as previously described (5)'; also called Sortilin propeptide fused to GST; not shown: glutathione S-transferase (GST) tag

Legend:
immobilized sSortilin = target: T1, immobilized sSortilin (Homo sapiens, UniProt Q99523); assay: Surface plasmon resonance: inhibition of ligand binding to immobilized sSortilin by Neurotensin derived peptides; conditions: for inhibition of Sortilin's binding of its own propeptide (Sort-pro): GST-Sort-pro binding to immobilized sSortilin, FIG. 3A+B
T1 construct: His6 (C); made in house; host or cells: CHO-K1
T1 sequence (Q99523 78-755): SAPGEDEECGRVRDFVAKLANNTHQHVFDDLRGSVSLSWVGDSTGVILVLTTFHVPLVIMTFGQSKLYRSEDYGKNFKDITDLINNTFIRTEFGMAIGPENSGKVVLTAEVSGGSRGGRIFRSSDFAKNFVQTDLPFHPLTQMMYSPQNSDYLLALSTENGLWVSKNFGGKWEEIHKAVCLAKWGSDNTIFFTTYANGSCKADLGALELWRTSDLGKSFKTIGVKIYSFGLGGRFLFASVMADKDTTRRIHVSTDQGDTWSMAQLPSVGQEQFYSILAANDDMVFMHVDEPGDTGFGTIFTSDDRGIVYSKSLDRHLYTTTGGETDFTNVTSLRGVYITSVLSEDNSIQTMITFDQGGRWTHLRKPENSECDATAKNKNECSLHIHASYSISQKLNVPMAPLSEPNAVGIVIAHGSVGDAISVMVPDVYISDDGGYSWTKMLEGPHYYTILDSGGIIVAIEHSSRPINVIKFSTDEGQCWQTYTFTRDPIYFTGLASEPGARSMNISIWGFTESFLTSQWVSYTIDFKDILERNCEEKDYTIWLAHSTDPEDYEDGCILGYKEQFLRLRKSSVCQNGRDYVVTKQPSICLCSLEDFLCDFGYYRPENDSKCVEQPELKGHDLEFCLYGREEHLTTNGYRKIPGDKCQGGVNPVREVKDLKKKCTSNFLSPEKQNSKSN
Experimental: (§1) Surface plasmon resonance (SPR) measurements were performed on a BIAcore 2000 instrument (Biacore Sweden) equipped with CM5 sensor chips maintained at 20° C. A continuous flow of HBS buffer (10 mM HEPES pH 7.4, 3.4 mM EDTA, 150 mM NaCl, 0.005% surfactant P20) passing over the sensor surface was maintained at 5 μl/min. […] A sortilin solution (320 μl, 5 μg/ml in 10 mM sodium acetate pH 4.0) was then injected over flow cells 1 and 2 at a flow rate of 15 μl/min. Remaining binding sites in all three flow cells were blocked by injection (5 μl/min) of 70 μl of 1 M ethanolamine pH 8.5. […] Screening of the samples was performed by injecting aliquots of 50 μl, at concentrations of 0.1-8 μM, through all flow cells with a flow rate of 5 μl/min. Unless otherwise stated, the samples were dissolved in 10 mM HEPES pH 7.4, 150 mM NaCl, 1.5 mM CaCl2, 1 mM EGTA, 0.005% surfactant P20. Sample buffer was also used as running buffer. The BIAcore response is expressed in relative response units (RU), i.e. the difference in response between the immobilized protein flow cell and the corresponding control flow cell (activated and blocked but without protein). Regeneration of the sensor chip after each cycle of analysis was performed by injecting 20 μl of 10 mM glycine/HCl pH 4.0, 500 mM NaCl, 20 mM EDTA and 0.005% surfactant P20. For calciumfree conditions, HBS containing 20 mM EDTA was used as sample as well as running buffer.

sSortilin S316E mutant [1] = target: T2, sSortilin S316E mutant (Homo sapiens, UniProt Q99523, S316E); assay: Surface plasmon resonance: ligand binding to purified S316E mutant sSortilin compared with wt sSortilin; conditions: compared with wtSortilin, SPR
T2 construct: His6 (C); made in house; host or cells: CHO cells
T2 sequence (Q99523 78-755 S316E): T1 sequence (Q99523 78-755) with S239E
Experimental: as §1

[2] = target: T3, Soluble Sortilin (sSortilin), luminal domain of human Sortilin fused C-terminally to His6 (human, UniProt Q99523 78-755); assay: SPR (BIAcore 3000), immobilised sSortilin
T3 construct: Expressed in CHO-K1 cells; 1; also called wtSortilin; wt sSortilin
T3 sequence: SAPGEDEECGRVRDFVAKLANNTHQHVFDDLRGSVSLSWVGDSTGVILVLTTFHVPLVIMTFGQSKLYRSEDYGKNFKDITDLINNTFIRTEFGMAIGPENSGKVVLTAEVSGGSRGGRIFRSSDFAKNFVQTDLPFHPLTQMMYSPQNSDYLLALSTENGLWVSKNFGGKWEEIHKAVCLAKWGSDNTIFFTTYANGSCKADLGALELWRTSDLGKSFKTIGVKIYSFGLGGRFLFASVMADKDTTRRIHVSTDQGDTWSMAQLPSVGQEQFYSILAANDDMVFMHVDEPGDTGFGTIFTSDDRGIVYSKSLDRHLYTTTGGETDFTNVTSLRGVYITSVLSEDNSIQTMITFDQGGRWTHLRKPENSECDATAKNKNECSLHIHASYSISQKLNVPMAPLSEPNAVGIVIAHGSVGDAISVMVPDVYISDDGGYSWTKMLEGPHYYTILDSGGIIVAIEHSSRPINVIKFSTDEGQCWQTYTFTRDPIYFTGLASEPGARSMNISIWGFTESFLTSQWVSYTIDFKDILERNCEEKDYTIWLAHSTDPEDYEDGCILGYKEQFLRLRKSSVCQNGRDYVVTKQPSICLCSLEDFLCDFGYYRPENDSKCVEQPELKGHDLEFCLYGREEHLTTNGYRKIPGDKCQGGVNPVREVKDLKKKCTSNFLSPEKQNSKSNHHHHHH
Experimental: All measurements were performed on a BIAcore 3000 instrument (Biacore Sweden) maintained at 20° C. A continuous flow of buffer F (10 mM HEPES pH=7.4, 150 mM (NH₄)₂SO₄, 1.5 mM CaCl₂, 1.5 mM EGTA and 0.005% Tween-20) was passed over the CM5 chip sensor surface at 5 μl/min.

sSortilin S316E mutant [3] = target: T4, sSortilin S316E mutant (human, UniProt Q99523 78-755); assay: SPR, immobilised S316E sSortilin
T4 construct: those of wt sSortilin are used
T4 sequence: T3 sequence with S239E
Experimental: as §1, with “For calciumfree conditions, HBS containing 20 mM EDTA was used as sample as well as running buffer.” left out

Molecule	inhibition of Sortilin's binding of its own propeptide (Sort-pro) (immobilized sSortilin; SPR)	binding to S316E mutant sSortilin (sSortilin S316E mutant [1])	further results
Arg8-Arg-Pro-Tyr-Ile-Leu13-NH2 [reference compound]	fails to inhibit	–	–
Tyr-Ile-Leu [Tyr11-Ile-Leu13]	full inhibition	–	affinity for Sortilin (summary statement) (immobilized sSortilin): high affinity; inhibition of binding of the prodomain of NGF to sSortilin (immobilized sSortilin; GST-tagged propeptide of NGF, SPR, FIG. 3C): hampers binding; inhibition of binding of RAP to sSortilin (immobilized sSortilin; SPR, FIG. 3D): hampers binding
Sort-pro: Sortilin's own propeptide (amino acid residues 34-77 of SEQ ID NO. 1), used fused to GST (QDRLDAPPPPAAPLPRWSGPIGVSWGLRAAAAGGAFPRGGRWRR; also: fused to GST)	–	no binding	–
Arg9-Pro-Tyr-Ile-Leu13 [reference compound]	equally effective	–	–
B1	–	–	Kd [2]: ~10 nM
B2	–	did bind	–
B3	–	did bind	–
B4	–	–	binding result (sSortilin S316E mutant [3]): no binding
